In publication PMC10341166, “The Src-Family Kinases SRC and BLK Contribute to the CLDN6-Adhesion Signaling” (Cells, 2023):

Tests used:
[1] = target: T1, recGST-BLK (full-length recombinant BLK, Sf9) (mouse, UniProt P16277 1-499); test: pull-down; GST pull-down: 10 µg recGST, recBLK-FLAG or recSRC bound to Glutathione-Superflow Resin, incubated with 3 µg recCLDN6C for 1 h at room temperature; washed five times in 140 mM NaCl, 10 mM Na2HPO4, 1.8 mM KH2PO4, pH 7.5; immunoblot; conditions: both partners purified
T1 construct: tyrosine-protein kinase BLK, mouse, full-length; Blk-FLAG subcloned into plEx/Bac-4; also called recBLK; recBLK-FLAG; source: Sf9 insect cells, transfected, purified (GST-tagged protein purification kit)

[2] = target: T2, recGST-SRC (full-length recombinant SRC, Sf9) (mouse, UniProt P05480 1-535); test: as above; conditions: both partners purified
T2 construct: proto-oncogene tyrosine-protein kinase SRC, mouse, full-length; Src-FLAG subcloned into plEx/Bac-4; also called recSRC; source: Sf9 insect cells, transfected, purified (GST-tagged protein purification kit)

T1 sequence (P16277 whole entry): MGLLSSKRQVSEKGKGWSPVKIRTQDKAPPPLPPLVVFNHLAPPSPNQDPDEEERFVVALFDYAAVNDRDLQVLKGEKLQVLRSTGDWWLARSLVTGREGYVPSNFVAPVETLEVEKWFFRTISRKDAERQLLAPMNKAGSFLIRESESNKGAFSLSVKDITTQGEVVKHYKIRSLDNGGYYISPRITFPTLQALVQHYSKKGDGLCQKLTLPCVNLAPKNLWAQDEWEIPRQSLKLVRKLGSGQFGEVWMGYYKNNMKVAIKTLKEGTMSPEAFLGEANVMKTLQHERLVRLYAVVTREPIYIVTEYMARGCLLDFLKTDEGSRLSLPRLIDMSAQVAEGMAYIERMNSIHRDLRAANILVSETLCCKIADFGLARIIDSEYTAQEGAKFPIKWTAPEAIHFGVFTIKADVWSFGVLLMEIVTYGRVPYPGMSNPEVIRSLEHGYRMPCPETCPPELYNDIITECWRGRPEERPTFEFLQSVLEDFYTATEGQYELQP

binding result [1]: binds
binding result [2]: binds
B1: recCLDN6C (recombinant C-terminal cytoplasmic domain of CLDN6, C185-V219) (domain or fragment, mouse, UniProt Q9Z262 185-219, looked up)
chain: CSSGGTQGPRHYMACYSTSVPHSRGPSEYPTKNYV
notes: claudin-6 (CLDN6), mouse, C-terminus C185-V219; source: recombinant, from plEx/Bac-4
